Experiment [1] has as its target T1, Claudin 18.2 (CLDN18.2), expressed on CHOS-CLDN 18.2 / HEK293-CLDN 18.2 / HCC827-CLDN 18.2 cells (human, UniProt P56856-2 1-261).
T1 construct: whole, on cells; The species is not repeated for the CHOS-CLDN 18.2 cells; also called claudin-18A2
The experiment in a line: FACS, CHOS-CLDN18.2 cells. A general note: Flow cytometry measures light scatter and fluorescence of single cells or particles in a stream.
Procedure: (§1) The initial concentration of the antibody was 20 μg/ml, it was diluted at 1:4, and incubated at 4° C. for 60 min.

The target of experiment [2] is T1, Claudin 18.2 (CLDN18.2), expressed on …. Put plainly: FACS, CHOS-CLDN18.2 cells, 0.313 µg/ml.
Procedure: as §1
Experiment [3] shares this target. The experiment in a line: FACS, MFI on CHOS-CLDN18.2 over MFI on CHOS-CLDN18.1, 10 µg/ml.
Procedure: (§2) The initial concentration of the antibody was 20 μg/mkit was diluted at 1:4, and incubated at 4° C. for 60 min.
Experiment [4] shares this target. The experiment in a line: FACS, CHOS-CLDN18.2 cells, 0.020 µg/ml.
Procedure: as §1
For experiment [5] the target is unchanged. The experiment in a line: FACS, CHOS-CLDN18.2 cells, 0.005 µg/ml.
Procedure: as §1
Experiment [6] shares this target. The experiment in a line: FACS, CHOS-CLDN18.2 cells, 0 µg/ml (background).
Procedure: as §1
The target is the same in experiment [7]. Put plainly: FACS, CHOS-CLDN18.2 cells, 5 µg/ml.
Procedure: as §1
Experiment [8] has the same target. Put plainly: FACS, CHOS-CLDN18.2 cells, 1.250 µg/ml.
Procedure: as §1
Experiment [9] has the same target. Put plainly: FACS, CHOS-CLDN18.2 cells, 10 µg/ml.
Procedure: as §2
For experiment [10] the target is unchanged. Put plainly: FACS, CHOS-CLDN18.2 cells, 0.078 µg/ml.
Procedure: as §1
The target is the same in experiment [11]. The experiment in a line: FACS, CHOS-CLDN18.2 cells, 20 µg/ml.
Procedure: as §1
For experiment [12] the target is unchanged. The experiment in a line: FACS, CHOS-CLDN18.2 cells, 0.313 µg/ml. This is another data set of the same source.
Procedure: as §1
For experiment [13] the target is unchanged. Put plainly: FACS, CHOS-CLDN18.2 cells, 5 µg/ml. This is another data set of the same source.
Procedure: as §1
For experiment [14] the target is unchanged. The experiment in a line: FACS, CHOS-CLDN18.2 cells, 0.078 µg/ml. The source holds these as a separate data set.
Procedure: as §1
The target is the same in experiment [15]. Put plainly: FACS, CHOS-CLDN18.2 cells, 0.020 µg/ml. This is another data set of the same source.
Procedure: as §1
The target is the same in experiment [16]. The experiment in a line: FACS, CHOS-CLDN18.2 cells, 1.250 µg/ml. This is another data set of the same source.
Procedure: as §1
For experiment [17] the target is unchanged. The experiment in a line: FACS, CHOS-CLDN18.2 cells, 20 µg/ml. This is another data set of the same source.
Procedure: as §1
For experiment [18] the target is unchanged. The experiment in a line: FACS, CHOS-CLDN18.2 cells, 0 µg/ml (background). The source holds these as a separate data set.
Procedure: as §1
Experiment [19] shares this target. Put plainly: FACS, CHOS-CLDN18.2 cells. This is another data set of the same source.
Procedure: as §1
Experiment [20] has the same target. Put plainly: FACS, CHOS-CLDN18.2 cells, 0.005 µg/ml. This is another data set of the same source.
Procedure: as §1
Experiment [21] shares this target. The experiment in a line: cell-based or functional assay.

Substitutions are numbered along the chain they refer to. Read-outs that look alike come from different tables or passages of the source.

B1: QP201202 (antibody, human IgG1, V domains shown)
VH: EVQLQQSGPELVKPGASVKMSCKASGYTFTNYFVHWVKQKPGQGLEWIGYINPYNDDTKYNEKFKGKATLTSDKSSSTAYMDLSSLTSEDSAVYYCLSLRFFAYWGQGTLVTVSA
VL: DIVMTQSPSSLTVTAGEKVTMSCKSSQSLLNSGNQKNYLTWYQQKPGQAPKLLIYWASTRESGVPDRFIGSGSGTDFTLTISHVQAEDLAVYFCQNDYSYPLTFGAGTNLELK
notes: Chimeric; also called 44C6
On to B1, for which the EC50 in experiment [1] amounted to 0.417 µg/mL. In experiment [1], this molecule registered a max of 113000. Besides, the FACS reading in experiment [2] turned out to be 38000; in experiment [4] it was 4770; in experiment [5], 2260; in [6], 732; in [7], 81100; in experiment [8], 92700. Besides, the FACS reading in experiment [10] was found to be 12600; in experiment [11] it was 113000. In addition, the “CLDN18.2/CLDN18.1 (MFI ratio)” value in experiment [3] worked out at 381. Also, the MFI in experiment [9] stood at 439000.

B2: QP14441441 (antibody, human IgG1, kappa, V domains shown)
VH: QVQLVQSGAEVKKPGASVKVSCKASGYAFSSYWMNWVRQAPGQGLEWIGQIYPGNGDTTYNGKFKGRVTMTADKSTSTVYMELSSLRSEDTAVYYCARFVKGNAMDYWGQGTLVTVSS
VL: DIVMTQSPDSLAVSLGERATISCKSSQSLLNSGNQKNYLTWYQQKPGQPPKLLIYWASTRESGVPDRFSGSGSGIDFTLTISSVQAEDVAVYYCQNAYSYPFTFGQGTKLEIKR
notes: Humanized from QP192193
With B2, the FACS reading came to 74700 in experiment [12]; 151000 in [13]; 27300 in experiment [14]; 10100 in experiment [15]; 125000 in [16]; 175000 in experiment [17]. Besides, the figures for the FACS reading in experiment [18] and in experiment [20] were 732 and 4230, respectively. Besides, the “CLDN18.2/CLDN18.1 (MFI ratio)” value in experiment [3] was 608. It took 0.484 µg/mL to reach a half-maximal effect in experiment [19] (EC50). Further, in experiment [19], the max amounted to 175000. Further, the MFI in [9] was found to be 693000.

B3: QP14451440 (antibody, human IgG1, kappa, V domains shown)
VH: B2 VH with Y95F
VL: B2 VL with I75T, V84L
notes: Humanized from QP192193; also called QP14401445
For B3, the FACS reading in [12] was determined as 104000. The FACS reading in experiment [13] was 139000. Besides, in [14], the FACS reading was 35400. The molecule further returned an FACS reading in experiment [15] of 13800. In experiment [16], the FACS reading is 123000. Moreover, the “CLDN18.2/CLDN18.1 (MFI ratio)” value in experiment [3] is 470. In [17], the FACS reading stood at 169000. This molecule gave an FACS reading in experiment [18] of 732. In [19], this molecule gave an EC50 of 0.223 µg/mL and a max of 169000. The MFI in [9] was 620000. The molecule further displayed an FACS reading in experiment [20] of 4930. Besides, in experiment [21], the “EC50 of killing, ADCC (PBMC, HEK293-CLDN18.2 cells)” value was found to be 0.0082 µg/mL; the “Killing percentage, ADCC (PBMC, HEK293-CLDN18.2 cells), 0 µg/ml” value is 5.43%; the “Killing percentage, ADCC (PBMC, HEK293-CLDN18.2 cells), 0.0001024 µg/ml” value is -1.11%; the “Killing percentage, ADCC (PBMC, HEK293-CLDN18.2 cells), 0.000512 µg/ml” value stood at 10%. Also, in [21], the “Killing percentage, ADCC (PBMC, HEK293-CLDN18.2 cells), 0.00256 µg/ml” value stood at 10.8%; the “Killing percentage, ADCC (PBMC, HEK293-CLDN18.2 cells), 0.0128 µg/ml” value stood at 28.5%; the “Killing percentage, ADCC (PBMC, HEK293-CLDN18.2 cells), 0.064 µg/ml” value was 42.1%; the “Killing percentage, ADCC (PBMC, HEK293-CLDN18.2 cells), 0.32 µg/ml” value is 43.7%. Further, in experiment [21], the “Killing percentage, ADCC (PBMC, HEK293-CLDN18.2 cells), 1.6 µg/ml” value amounted to 37.8%; the “Killing percentage, ADCC (PBMC, HEK293-CLDN18.2 cells), 8 µg/ml” value was determined as 42.7%; the “Killing percentage, ADCC (PBMC, HEK293-CLDN18.2 cells), 40 µg/ml” value worked out at 47.8%.

B4: QP14451442 (antibody, human IgG1, kappa, V domains shown)
VH: B2 VH with Y95F
VL: B2 VL with L52M
notes: Humanized from QP192193
Consider B4, for which the FACS reading is 82300 in experiment [12]; 138000 in [13]; 29800 in [14]; 11100 in experiment [15]; 137000 in experiment [16]; 177000 in [17]. Besides, the FACS reading in experiment [18] amounted to 732; in experiment [20], 4790. For the same molecule, the “CLDN18.2/CLDN18.1 (MFI ratio)” value in experiment [3] worked out at 463. Also, the EC50 in [19] is 0.344 µg/mL. This molecule showed a max in experiment [19] of 177000. Moreover, the MFI in experiment [9] was 653000.

B5: QP192193 (antibody, human IgG1, V domains shown)
VH: QVQLQQSGAELVRPGSSVKISCKASGYAFSSYWMNWVKQRPGQGLEWIGQIYPGNGDTTYNGKFKGQATLTADKSSSTVYMQLSSLTSEDSAVYFCARFVKGNAMDYWGQGTSVTVSS
VL: DIVMTQSPSSLTVTAGEKVTMSCKSSQSLLNSGNQKNYLTWYQQNPGQPPKMLIYWASTRESGVPDRFTGSGSGIDFSLTISSVQAEDLALYYCQNAYSYPFTFGSGTKLEIK
notes: Chimeric; also called 40F1; mouse-derived chimeric antibody QP192193
Consider B5, for which the FACS reading in [12] was determined as 74600; in experiment [13], 177000; in experiment [14], 27800; in experiment [15] it was 11400; in experiment [16] it was 168000; in experiment [17], 155000. Further, the FACS reading in [18] turned out to be 732; in experiment [20], 3790. Also, the “CLDN18.2/CLDN18.1 (MFI ratio)” value in experiment [3] came out at 627. Moreover, in experiment [19], the EC50 was 0.361 µg/mL. In experiment [19], this molecule gave a max of 177000. This molecule showed an MFI in [9] of 644000.

Usually EC50 stands for the concentration needed to bring the measured effect to its halfway point. Higher therefore signals a need for much substance.

For the origin of these results see patent US20230183352A1 (published 2023).
